Source: a protein production outcome set (Wang et al. 2014)

Assay: label from the status in PepcDB records

Sequence	protein production
MKNDLFTEIIGQHTAKLLLTEAIERNQIAPAYLFSSEVEGVGKGKIALAFANAILSRGSRSAMAKHLPPPKGDAQGTASAGESKHLDILQIKPTYTENTSQQKSVPAIRVEQMREVIEFLSTSAVEGKQKVVIIYEADMLNPTAANKLLKTLEEPKTGTFILISSYPQKLLPTIKSRCQIIPFQRLTDEEVISVLKDQQIEATEKILAISSGSPGQAIANIKMLASISQEITKELEVPPDDILKALSLSNSISSWNHQTQLWLLTYLQYNWWQKLKSTKLLAKFTQARKQLLHHVTPRSVWDSLLLP	failed
MYDYSILPNRIILCVDLRSFYASVSCIKMGLDPMHTKLAVVGDVNRNGSIVLAATPPLKALGVKKMARLYEIPRRKDILVVNPIMSTYIKCSNYITKLALQYVPIEDFHQYSIDEFFMDITDSIHLFAQDPYEFAMKFKREIYDHTRIECTIGIAPNPLMSKVALDIEAKKNKDGIAFWQYEDIPTKLWSIRPLNKFWGISYKTEEKLNRKGIYSIGDLANYPLKYLKQSFGKIGEELHLHSHGIDFSRISEKYVPATTSIGKSQILMRDYTIEEFPIILLEHIEEVCYRLRRQTKLAQTIHFSVGYSKSYTGGIRKTHTLNRPTNLTMDIYHICTYFLHQQYTGEPIRSINISLTNLIQEGEEQISLFDNVTKREQEMKLTKVMDEIRTKFGKNSILRGISYTHSATARHRNTLIGGHKS	failed
MKTKQTDELLAKDEQYVWHGMRPFSPNSTMVGAKAEGCWVEDIQGKRYLDGMSGLWCVNSGYGRKELAEAAYKQLQTLSYFPMSQSHEPAIKLAEKLNEWLGGEYVIFFSNSGSEANETAFKIARQYYAQKGEPHRYKFMSRYRGYHGNTMATMAATGQAQRRYQYEPFASGFLHVTPPDCYRMPGIERENIYDVECVKEVDRVMTWELSETIAAFIMEPIITGGGILMPPQDYMKAVHETCQKHGALLISDEVICGFGRTGKAFGFMNYDVKPDIITMAKGITSAYLPLSATAVKREIYEAFKGKGEYEFFRHINTFGGNPAACALALKNLEIIENENLIERSAQMGSLLLEQLKEEIGEHPLVGDIRGKGLLVGIELVNDKETKEPIDNDKIASVVNACKEKGLIIGRNGMTTAGYNNILTLAPPLVISSEEIAFVIGTLKTAMERI	failed
MSTATLSGQSPSAQRRPMTREERRVIFASSLGTVFEWYDFYLYGSLAAIIAQHFFSGVNPTAAFIFALLAFAAGFAVRPFGALVFGRLGDLVGRKYTFLITIVIMGLSTFLVGVLPSYASIGIAAPAILIILRLLQGLALGGEYGGAATYVAEHAPHGRRGFYTSWIQTTATLGLFLSLLVILGVRTFMGEEAFKDWGWRIPFLISVVLLGISVWIRLQLNESPTFKRMKEEGKGSKAPIAESFGQWRNLKVVILALLGLTAGQAVVWYTGQFYALFFLTQSLKIDSNTANIMIAIALLVGTPFFVLFGALSDRIGRKPIIMAGCLIAALTYFPIFKGLTHYANPALEKAQATAPVTVIADPATCSFQFNPVGTASFTSSCDVVKSFMARNSVNYENQSAAAGSVAKVMIGNDEFASFDGKGLAPAEFKTKATELDKALTAAIRSHGYPAKADPAQTNYFMVVVLLTLLVIYVTMVYGPIAAMLVEMFPTRIRYTSMSLPYHIGNGWFGGFLPPVAFAVVAATGNIYDGLWYPIIIAVMTLVIGTLFVRETKDNDINA	not failed
MELLFIIAAFVMGFIALKINLPPLVGFLLAGFGLHALGFQSNDALETFADLGVTLLLFSIGLKLDIKTLLAKEIWLGATLHNVFSTLFFTFALLGLKLLGINMLANIETAQLVLFGFALSFSSTVFAVKALQEKGEMNATYGTLAIGILVMQDIFAVVFLTASTGKIPEITALALFALPLFRPLFFKLLDWAGHGEMLVLYGIFLALVAGAGTFELVGMKPDLGALILGMLLAGHAKASELSKSLFNLKEVLLICFFLNIGLSAAPTISGLGLALILILLLPVKGFLYFIIINKFKFRVRTSLLASLTLFNYSEFGLIVGGLAFKMGWLPADTLVAIAIAVSISFIISAPLNNFGHTIYQRSRHWLKEHTAERLNPMDKLINPGRAQILILGMGRIGSGAYDELKEKYGDIILGIELREESAKQHQELGRNVISGDATDPDFWERILSTSHVKLVLLAMPNHQGNQFALEQLQTRNYQGQTAAIAAYNDQIDGLIEQGVDAAFNIYHEAGSGFARHVSEQLDPQFNHHKDYITH	failed
MKLAMIGFGQAGGKIVDKFLEYDKETGSGIVRSAVAVNTAKADLLGLEHIPEENRVLIGQARVKGHGVGADNELGAEIAEEDIDEVQGAIDNIPVHEVDAFLIVAGLGGGTGSGGSPVVAKHLKRIYTEPVYGLGVLPGSDEGGIYTLNAARSFQTFVREVDNLMVFDNDAWRQTGESVEGGYDHINEEIVRRFGVLFGAGEIEAGDNVAESVVDSSEIINTLDGGGVSTVGYASEDVEVSSGGGGLLSRFKGDDSSDDSMDTANTTNRITSLVRKAALGRLTLPCEIEGAERALLVMAGPPEHLNRKGIERGRKWLEEQTGSMEVRGGDYPTNAPKVAASILLAGVHNVPRIKELQQVAIEAQDNIDDIRNQSEDNLEDLVEDDEDELDPLF	failed
MEIFGKTFREGRFVLKEKNFTVEFAVEKIHLGWKISGRVKGSPGRLEVLRTKAPEKVLVNNWQSWGPCRVVDAFSFKPPEIDPNWRYTASVVPDVLERNLQSDYFVAEEGKVYGFLSSKIAHPFFAVEDGELVAYLEYFDVEFDDFVPLEPLVVLEDPNTPLLLEKYAELVGMENNARVPKHTPTGWCSWYHYFLDLTWEETLKNLKLAKNFPFEVFQIDDAYEKDIGDWLVTRGDFPSVEEMAKVIAENGFIPGIWTAPFSVSETSDVFNEHPDWVVKENGEPKMAYRNWNKKIYALDLSKDEVLNWLFDLFSSLRKMGYRYFKIDFLFAGAVPGERKKNITPIQAFRKGIETIRKAVGEDSFILGCGSPLLPAVGCVDGMRIGPDTAPFWGEHIEDNGAPAARWALRNAITRYFMHDRFWLNDPDCLILREEKTDLTQKEKELYSYTCGVLDNMIIESDDLSLVRDHGKKVLKETLELLGGRPRVQNIMSEDLRYEIVSSGTLSGNVKIVVDLNSREYHLEKEGKSSLKKRVVKREDGRNFYFYEEGERE	not failed
MASLSELAVFIAVAEQGSFVGAGRVLGVSASAVGKRISRLEVDLGVRLLQRNTRSLALTAEGETVLSRGRSLLDEAESLRVVLERSSRQPGGVLRLSLPPIGGVLMAELAAFRQRYPEVALELDYSERNVDIIEEGFDAAIRVGAGDDGKLRSLALPGFRRLIVAAPDYLVRHGQPRSAAQLAEHQLIHYRSPNSGKLEAWPLVNAELPRALVCNSVHARLDFALQGQGIACLPDISIRRELEDGSLRPLLGSENGEKVVLRLLWPSSRGLSARMEAFLGFMRERSGAAPCENFKVRA	failed
MKKILVGIPNYNNAAYIVDTIESVLKQSYSGVDVVVFDNASTDDSVEIIENTFLNNPNVLLKKSASNVGPTMNHNRCLEYAIDNEYDYLKVLSSDDVLLPNIIQEQFELLESEPRGAFATCNMIVTDDKLTKIKDHDFLGSNTDGNAVIKKCASHSANYIGGPSNGLLRVSCIGATRFSPEYKWLSDLKFYCDLLANRPFINTGTNGFFYRRHDNTDSSHVSKIKNLQRKESIRFSGEYGGNFLTKIKIYLRDIKSRLLLEHHHHHH	failed
MISSLTTIISTGTNLGSGTDDDIYFGIHLNNGQKKEWLLDKETYNDFENGATDEYYLYINDMDFLPTMVDKVWVRKNSTGSFAGNWFFKALRIDANGNDVLSVSPNEWITDLEHHHHHH	not failed
MNHRHYGNFMAALSFVIWGLLPVYYRFLHNAAMDELLAWRIIGSVPVGILIVYAVTRHWPNWSQVWRDKKSLWYTFVASSLMCISWSAFTWALTHHRVIDASLGFFIGPLVSVALGVFVLGDKLSKGQLIAILLATCGVLYQVFQYGQLPFVALTMGLFFALYGLYKKKINYDWSTTLFIEALVLAPFALGYLLFKQWTTGELASSVDTTTLLLYFGSAPITILPLIFYSIAIRITNLSTVGLMQYIEPSLQFILAVVFFGELFDDVKAVTFAFIWVGLLLTIFEGVAKGIKRKKLANHSV	failed
GTGTQPTIVIGGFVPDATEAVEFQRELFRRHGSVYYLNYARHGFSVEMFFAQLADLVEDLNRRGEKPVIFAISFGCSLLSRFLRERYSGEGLTVGGIVMTSP	failed
MVKYEELLKTLENGINSEEGEIRLVRKSQGRFKEEFNFDLSLGSKPLLTLKVFLGRKPYWQPWVEVFGVNPNLRNVFFGSEAERKLYEFLSEHFGRIFVEYFEDKETTYELQKGVPPALSRLGFELLKLGYTYFRDWYIPEGLMEGGHKIQAEKPKTEEAKKRHLENLKKEFEEFIGKCEDEGLIKKVKERYNFLEHEGSS	not failed
MRQLTAAALYENLFGPLALAYAPGRPFEWRSNGRAWRARGRLGAFGRPRLEPGTVECRTGRAWRQASIADAVAALPGAPQEHARLRHELNQTEALLRWNRVNAPRHDRRRMSFSALDAAIDEGHPYHPCFKSRTGFDEHDHRCYGPEADGTFQLDWLGVARELLHLSFPSTEASFWKRELGAAGLADIEARAAALGLEHDRFGLMPIHPWQWRDLSADRLRPLLQSGRIHYLGAAGDRYRASQSVRTLSNAQAPHRSSVKLALGIVNTSTRRNIEAHSVATAPVLSRWLDTILDSDPLFRLRYRLDIVSEFAGAIVDRDGPLGGEIAAIWRESVESKLADGESAVPFNALMAIEADGLPFIDPWLQRYGLKPWLDRLVEVAVLPVWRLLVVHGIATEAHGQNMVLVHRDGWPERLILRDFHDSLEFVPDFLADPNLAPDFLTLDPRYRRALPNQYYWMERPEDLRDLFVDCLFVFNLSEISHLVQSFYGISEGAFWHRVSLRLAADIAEHGLGERVARLGFGTPEIVIESLLARKLGLSGDALQHNVPNPLAAVVPLAREYA	failed
MEESSAAKIQLLKEFKFEKILKDDTKSKIITLYGKIRNEVALLLLEKTAFDLNTIKLDQLATFLQDTKLVENNDVFHWFLSTNFQDCSTLPSVKSTLIWPASETHVYKYSSQKKPMVCETPLMYLKVTKPFIETQRGPQIQWVENILTHKAEAERIVVEDPDPLNGFIVIPDLKWDRQTMSALNLMAIVHATDIASIRDLKYKHIPLLENIRNKVLTEVPKQFSVDKNQLKMFVHYLPSYYHLHVHILHVDHETGDGSAVGRAILLDDVIDRLRNSPDGLENVNITFNIGEQHFLFQPLTNMNA	not failed
MALVLVKYGTDHPVEKLKIRSAKAEDKIVLIQNGVFWALEELETPAKVYAIKDDFLARGYSEEDSKVPLITYSEFIDLLEGEEKFIG	not failed
MLIPQQKELNSISLLAEVSRTVTNENDISKVLRIVLFIMSEHLDMLRGMITILNRETGEITTNESFGLTEEEMERGRYRIGEGIIGQVVKTGKPFIVPNIGDEPLFLDRTRSRQKTKKENLCFICIPIRSGAEIIGTLSADRQLEPSLLKESGKRMKAEDERMDLLQHYVDLLSIIASMISQAVRLKQIAHEATAGIAVVEHKPQQEK	failed
MAFWAGGSPSVVDYFPSEDFYRCGYCKNESGSRSNGMWAHSMTVQDYQDLIDRGWRRSGKYVYKPVMNQTCCPQYTIRCRPLQFQPSKSHKKVLKKMLKFLAKGEVPKGSCEDEPMDSTMDDAVAGDFALINKLDIQCDLKTLSDDIKESLESEGKNSKKEEPQELLQSQDFVGEKLGSGEPSHSVKVHTVPKPGKGADLSKPPCRKAKEIRKERKRLKLMQQNPAGELEGFQAQGHPPSLFPPKAKSNQPKSLEDLIFESLPENASHKLEVRLVPVSFEDPEFKSSFSQSFSLYVKYQVAIHQDPPDECGKTEFTRFLCSSPLEAETPPNGPDCGYGSFHQQYWLDGKIIAVGVIDILPNCVSSVYLYYDPDYSFLSLGVYSALREIAFTRQLHEKTSQLSYYYMGFYIHSCPKMKYKGQYRPSDLLCPETYVWVPIEQCLPSLENSKYCRFNQDPEAVDEDRSTEPDRLQVFHKRAIMPYGVYKKQQKDPSEEAAVLQYASLVGQKCSERMLLFRN	failed
MLLAYSMKVVYHLFSGGKDSSLAAWILKKLGYEVKLITITFGVLDNWKFARETAEILGFDHEVIEMPIGILEKATEMCIKEGRAGNAIQYIHERALEYIASREEVKRISDGTRRDDRVPFLDLSKARSLEDRYNVAYIRPLLGLGYKTIRELVNEIFVVVEDESEKVQKGDYETELRELIRRKGHDPSQIFPKRHVQSRVVGLR	not failed
